Experimental data: publication doi:10.1101/2020.08.11.244863

Legend:
[1] = molecular target: SARS-CoV-2 Nsp15 H235A (SARS-CoV-2); experiment: cryo-EM structure
[2] = molecular target: SARS-CoV-2 Nsp15 H235A (SARS-CoV-2); experiment: SEC
[3] = molecular target: SARS-CoV-2 Nsp15 H250A (SARS-CoV-2); experiment: SEC

| Substance | stoichiometry N [1] | stoichiometry N [2] | stoichiometry N [3] |
| --- | --- | --- | --- |
| SARS-CoV-2 Nsp15 H235A (enzyme) | 6 | 6 | – |
| SARS-CoV-2 Nsp15 H250A (enzyme) | – | – | 6 |
